Measured values taken from patent publication US20100008937A1.

Columns and labels:
[1] = molecular target: human WT LFA-1 on stably transfected K562 cells (human) (UniProt P20701); assay: cell-based or functional assay
[2] = molecular target: human HA (high-affinity) LFA-1 on stably transfected K562 cells (human) (UniProt P20701); assay: cell-based or functional assay
Sequence of human HA (high-affinity) LFA-1 on stably transfected K562 cells (human) (P20701 26-1170 K312C/K319C limits assumed, chain 1 of 2): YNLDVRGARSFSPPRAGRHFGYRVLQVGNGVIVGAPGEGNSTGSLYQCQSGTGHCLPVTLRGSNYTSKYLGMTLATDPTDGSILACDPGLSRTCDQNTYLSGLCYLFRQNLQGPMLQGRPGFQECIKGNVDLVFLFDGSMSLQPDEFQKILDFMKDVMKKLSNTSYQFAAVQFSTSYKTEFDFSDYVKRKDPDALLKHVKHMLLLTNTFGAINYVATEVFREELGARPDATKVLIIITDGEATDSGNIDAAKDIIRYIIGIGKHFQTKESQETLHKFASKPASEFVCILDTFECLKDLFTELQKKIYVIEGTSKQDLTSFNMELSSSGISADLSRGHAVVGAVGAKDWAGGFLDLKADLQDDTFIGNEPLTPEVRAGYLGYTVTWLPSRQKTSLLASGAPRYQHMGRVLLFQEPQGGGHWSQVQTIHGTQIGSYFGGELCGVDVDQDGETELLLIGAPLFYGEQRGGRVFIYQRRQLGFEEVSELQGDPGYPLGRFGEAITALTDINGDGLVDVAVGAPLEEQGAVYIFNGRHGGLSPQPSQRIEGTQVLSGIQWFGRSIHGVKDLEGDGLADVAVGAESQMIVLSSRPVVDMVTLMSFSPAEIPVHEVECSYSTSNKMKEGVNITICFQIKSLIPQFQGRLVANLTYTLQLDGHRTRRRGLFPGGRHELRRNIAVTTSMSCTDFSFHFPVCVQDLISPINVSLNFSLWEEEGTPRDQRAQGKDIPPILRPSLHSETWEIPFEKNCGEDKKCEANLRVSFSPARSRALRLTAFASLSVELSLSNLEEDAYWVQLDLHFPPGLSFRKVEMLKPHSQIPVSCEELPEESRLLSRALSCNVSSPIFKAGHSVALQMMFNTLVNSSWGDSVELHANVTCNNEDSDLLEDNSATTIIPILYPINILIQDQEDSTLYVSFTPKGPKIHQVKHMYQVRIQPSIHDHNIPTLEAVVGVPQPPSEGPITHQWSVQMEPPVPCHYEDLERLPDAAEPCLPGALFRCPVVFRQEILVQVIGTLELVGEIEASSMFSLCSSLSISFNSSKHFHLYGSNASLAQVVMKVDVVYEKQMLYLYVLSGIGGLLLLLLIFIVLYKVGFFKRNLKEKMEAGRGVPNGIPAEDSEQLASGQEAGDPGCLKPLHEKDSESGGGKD
Sequence of human HA (high-affinity) LFA-1 on stably transfected K562 cells (human) (P05107 23-769 limits assumed, chain 2 of 2, further chain): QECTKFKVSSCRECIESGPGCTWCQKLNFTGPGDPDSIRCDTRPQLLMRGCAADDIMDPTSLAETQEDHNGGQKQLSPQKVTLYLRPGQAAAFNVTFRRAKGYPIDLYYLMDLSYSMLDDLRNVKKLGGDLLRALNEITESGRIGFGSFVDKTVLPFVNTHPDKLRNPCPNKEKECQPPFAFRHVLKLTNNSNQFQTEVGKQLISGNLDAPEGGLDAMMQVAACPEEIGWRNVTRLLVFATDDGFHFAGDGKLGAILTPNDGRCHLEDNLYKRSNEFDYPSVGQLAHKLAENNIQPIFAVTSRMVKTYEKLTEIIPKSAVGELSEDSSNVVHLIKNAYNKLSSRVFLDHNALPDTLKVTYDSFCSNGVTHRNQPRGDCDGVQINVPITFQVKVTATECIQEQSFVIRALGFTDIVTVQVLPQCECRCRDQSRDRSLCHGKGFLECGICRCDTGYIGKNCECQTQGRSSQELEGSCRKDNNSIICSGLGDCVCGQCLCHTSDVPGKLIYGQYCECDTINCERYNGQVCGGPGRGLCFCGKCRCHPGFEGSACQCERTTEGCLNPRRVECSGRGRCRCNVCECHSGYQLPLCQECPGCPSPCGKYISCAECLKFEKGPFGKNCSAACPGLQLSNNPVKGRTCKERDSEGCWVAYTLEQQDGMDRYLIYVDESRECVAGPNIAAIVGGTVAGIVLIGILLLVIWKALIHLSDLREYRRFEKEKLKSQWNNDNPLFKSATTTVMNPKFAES

Sequence of human WT LFA-1 on stably transfected K562 cells (human) (P20701 26-1170, chain 1 of 2): as the sequence (P20701 26-1170 K312C/K319C limits assumed, chain 1 of 2) above, with C287K, C294K counted along it
Sequence of human WT LFA-1 on stably transfected K562 cells (human) (P05107 23-769, chain 2 of 2, further chain): as the sequence (P05107 23-769 limits assumed, chain 2 of 2, further chain) above

Substance | Cy3+ K562 cells/Total K562 cells, % (in vivo Cy3-siRNA delivery) [1] | Cy3+ K562 cells/Total K562 cells, % (in vivo Cy3-siRNA delivery) [2]
AL-57-protamine fusion protein (scFv AL-57 fused to human protamine residues 8-29, His6 tag) (from UniProt P04553 8-29) | 23.3% | 88.1%
TS1/22-protamine fusion protein (scFv TS1/22 fused to human protamine residues 8-29, His6 tag) (from UniProt P04553 8-29) | 88.5% | 87.4%
